# Reference: paper PMC9482650, “Quantitative fragmentomics allow affinity mapping of interactomes” (Nature Communications, 2022)
# Where a chain is given by its changes, count along the chain named.
# T1: APBA1_1, Q02410
# T1 sequence (Q02410 651-752, limits assumed, looked up): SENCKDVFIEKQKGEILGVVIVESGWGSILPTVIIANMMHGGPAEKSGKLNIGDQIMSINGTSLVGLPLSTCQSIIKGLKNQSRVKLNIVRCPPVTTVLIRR
# T2: LIN7C, Q9NUP9
# T2 sequence (Q9NUP9 88-185, limits assumed, looked up): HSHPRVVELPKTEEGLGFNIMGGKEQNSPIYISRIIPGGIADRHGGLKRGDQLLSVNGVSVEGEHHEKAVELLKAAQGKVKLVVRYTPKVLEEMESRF
# T3: DLG3_2, Q92796
# T3 sequence (Q92796 221-321, limits assumed, looked up): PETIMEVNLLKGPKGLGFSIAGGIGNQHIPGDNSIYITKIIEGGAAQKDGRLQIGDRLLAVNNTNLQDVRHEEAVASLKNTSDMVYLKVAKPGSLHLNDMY
# T4: MPP7, Q5T2T1
# T4 sequence (Q5T2T1 134-230, limits assumed, looked up): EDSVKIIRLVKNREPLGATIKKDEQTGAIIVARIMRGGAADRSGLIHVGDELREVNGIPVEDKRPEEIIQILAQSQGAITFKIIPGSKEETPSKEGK
# T5: GRIP1_3, Q9Y3R0
# T5 sequence (Q9Y3R0 247-346, limits assumed, looked up): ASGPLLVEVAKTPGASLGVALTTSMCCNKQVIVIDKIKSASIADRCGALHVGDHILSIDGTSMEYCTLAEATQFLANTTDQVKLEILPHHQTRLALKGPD
# T6: PDZRN3_1, Q9UPQ7
# T6 sequence (Q9UPQ7 244-349, limits assumed, looked up): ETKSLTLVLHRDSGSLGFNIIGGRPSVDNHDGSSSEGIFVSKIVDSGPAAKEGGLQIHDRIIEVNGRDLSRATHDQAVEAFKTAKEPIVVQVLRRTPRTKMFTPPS
# T7: GRIP1_4, Q9Y3R0
# T7 sequence (Q9Y3R0 467-571, limits assumed, looked up): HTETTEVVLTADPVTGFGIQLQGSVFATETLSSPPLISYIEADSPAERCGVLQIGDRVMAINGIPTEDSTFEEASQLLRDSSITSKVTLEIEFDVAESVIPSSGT
# T8: LIN7B, Q9HAP6
# T8 sequence (Q9HAP6 88-185, limits assumed, looked up): T2 sequence (Q9NUP9 88-185, limits assumed, looked up) with S2A, E13D, I35V, I40V, H65Q, K79S, K89R, S96A
# T9: DFNB31_2, Q9P202
# T9 sequence (Q9P202 274-371, limits assumed, looked up): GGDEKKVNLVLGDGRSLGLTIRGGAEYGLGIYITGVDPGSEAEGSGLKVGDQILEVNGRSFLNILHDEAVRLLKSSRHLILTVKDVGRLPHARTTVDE
# T10: HTRA3, P83110
# T10 sequence (P83110 354-453, limits assumed, looked up): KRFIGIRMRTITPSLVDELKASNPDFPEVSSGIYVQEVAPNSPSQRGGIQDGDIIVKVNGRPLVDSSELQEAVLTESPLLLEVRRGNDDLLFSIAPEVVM
# T11: ARHGAP21, Q5T5U3
# T11 sequence (Q5T5U3 45-169, limits assumed, looked up): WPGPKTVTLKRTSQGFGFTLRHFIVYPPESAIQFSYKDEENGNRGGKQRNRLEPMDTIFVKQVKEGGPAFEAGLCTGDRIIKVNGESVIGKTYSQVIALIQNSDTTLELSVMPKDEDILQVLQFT
# Columns and labels:
# Experiment in all cases: holdup assay
# Set-up in all cases: key: below the threshold = too weak to quantify, mostly under pKd 3.1 to 4
# Conditions in all cases: plain residues with an end cap or a label only (N-terminal biotin on a linker: ado-ado)
# APBA1_1, Q02410 = biological target: T1, APBA1_1, Q02410
# GRID2IP_1, A4D2P6 = biological target: GRID2IP_1, A4D2P6
# Chain of GRID2IP_1, A4D2P6 (A4D2P6 1-87): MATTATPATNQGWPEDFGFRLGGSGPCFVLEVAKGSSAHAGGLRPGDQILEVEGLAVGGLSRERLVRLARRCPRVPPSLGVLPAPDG
# FRMPD3, Q5JV73 = biological target: FRMPD3, Q5JV73
# Chain of FRMPD3, Q5JV73 (Q5JV73 12-100): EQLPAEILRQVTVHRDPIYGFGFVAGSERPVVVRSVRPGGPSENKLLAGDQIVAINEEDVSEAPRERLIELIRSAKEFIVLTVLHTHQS
# DLG4_1, P78352 = biological target: DLG4_1, P78352
# Chain of DLG4_1, P78352 (P78352 62-152): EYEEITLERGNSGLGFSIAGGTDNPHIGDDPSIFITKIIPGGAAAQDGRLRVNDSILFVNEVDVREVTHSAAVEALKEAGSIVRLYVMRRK
# GORASP2, Q9H8Y8 = biological target: GORASP2, Q9H8Y8
# LIN7C, Q9NUP9 = biological target: T2, LIN7C, Q9NUP9
# MAGI2_3, Q86UL8 = biological target: MAGI2_3, Q86UL8
# Chain of MAGI2_3, Q86UL8 (Q86UL8 600-682): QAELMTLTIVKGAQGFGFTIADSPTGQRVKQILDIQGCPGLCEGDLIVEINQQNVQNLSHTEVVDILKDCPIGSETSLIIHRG
# DLG3_2, Q92796 = biological target: T3, DLG3_2, Q92796
# LNX1_1, Q8TBB1 = biological target: LNX1_1, Q8TBB1
# Chain of LNX1_1, Q8TBB1 (Q8TBB1 261-371): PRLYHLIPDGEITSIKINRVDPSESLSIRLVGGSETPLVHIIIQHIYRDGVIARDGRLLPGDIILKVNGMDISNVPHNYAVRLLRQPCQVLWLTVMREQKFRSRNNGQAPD
# CASK, O14936 = biological target: CASK, O14936
# Chain of CASK, O14936 (O14936 487-570): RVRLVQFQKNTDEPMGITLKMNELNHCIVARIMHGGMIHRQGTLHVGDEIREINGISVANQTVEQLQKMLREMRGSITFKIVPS
# GRIP2_5, Q9C0E4 = biological target: GRIP2_5, Q9C0E4
# Chain of GRIP2_5, Q9C0E4 (Q9C0E4 544-642): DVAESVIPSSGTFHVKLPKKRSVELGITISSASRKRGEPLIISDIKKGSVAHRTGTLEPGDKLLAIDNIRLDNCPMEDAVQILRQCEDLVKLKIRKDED
# Inadl_2, Q8NI35 = biological target: Inadl_2, Q8NI35
# Chain of Inadl_2, Q8NI35 (Q8NI35 238-335): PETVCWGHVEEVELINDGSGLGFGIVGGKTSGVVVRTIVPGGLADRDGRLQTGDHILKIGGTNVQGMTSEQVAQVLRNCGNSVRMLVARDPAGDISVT
# MPP7, Q5T2T1 = biological target: T4, MPP7, Q5T2T1
# GRIP1_3, Q9Y3R0 = biological target: T5, GRIP1_3, Q9Y3R0
# PDZRN3_1, Q9UPQ7 = biological target: T6, PDZRN3_1, Q9UPQ7
# NHERF4_2, Q86UT5 = biological target: NHERF4_2, Q86UT5
# Chain of NHERF4_2, Q86UT5 (Q86UT5 220-308): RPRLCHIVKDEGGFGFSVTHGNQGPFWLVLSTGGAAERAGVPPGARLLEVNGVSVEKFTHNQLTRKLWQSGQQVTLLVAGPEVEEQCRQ
# GRIP1_4, Q9Y3R0 = biological target: T7, GRIP1_4, Q9Y3R0
# GIPC2, Q8TF65 = biological target: GIPC2, Q8TF65
# Chain of GIPC2, Q8TF65 (Q8TF65 112-203): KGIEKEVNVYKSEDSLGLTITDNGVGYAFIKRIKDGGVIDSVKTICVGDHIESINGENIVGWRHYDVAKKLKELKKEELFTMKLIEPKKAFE
# FRMPD4, Q14CM0 = biological target: FRMPD4, Q14CM0
# Chain of FRMPD4, Q14CM0 (Q14CM0 67-160): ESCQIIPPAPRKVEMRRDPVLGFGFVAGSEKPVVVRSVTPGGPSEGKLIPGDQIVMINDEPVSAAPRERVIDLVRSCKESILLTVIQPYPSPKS
# LIN7B, Q9HAP6 = biological target: T8, LIN7B, Q9HAP6
# DFNB31_2, Q9P202 = biological target: T9, DFNB31_2, Q9P202
# GORASP1, Q9BQQ3 = biological target: GORASP1, Q9BQQ3
# Chain of GORASP1, Q9BQQ3 (Q9BQQ3 1-208): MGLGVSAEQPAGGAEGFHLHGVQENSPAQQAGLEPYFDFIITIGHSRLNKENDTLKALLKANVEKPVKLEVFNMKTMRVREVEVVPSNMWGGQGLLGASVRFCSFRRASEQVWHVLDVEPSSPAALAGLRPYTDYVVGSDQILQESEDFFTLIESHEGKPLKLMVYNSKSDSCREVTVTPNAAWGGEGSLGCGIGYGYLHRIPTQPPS
# HTRA3, P83110 = biological target: T10, HTRA3, P83110
# MAGI2_4, Q86UL8 = biological target: MAGI2_4, Q86UL8
# Chain of MAGI2_4, Q86UL8 (Q86UL8 772-865): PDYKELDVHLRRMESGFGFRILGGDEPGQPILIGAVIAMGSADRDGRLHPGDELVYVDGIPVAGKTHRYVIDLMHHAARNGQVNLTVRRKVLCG
# ARHGAP21, Q5T5U3 = biological target: T11, ARHGAP21, Q5T5U3
"pKd (APBA1_1, Q02410)","pKd (GRID2IP_1, A4D2P6)","pKd (FRMPD3, Q5JV73)","pKd (DLG4_1, P78352)","pKd (GORASP2, Q9H8Y8)","pKd (LIN7C, Q9NUP9)","pKd (MAGI2_3, Q86UL8)","pKd (DLG3_2, Q92796)","pKd (LNX1_1, Q8TBB1)","pKd (CASK, O14936)","pKd (GRIP2_5, Q9C0E4)","pKd (Inadl_2, Q8NI35)","pKd (MPP7, Q5T2T1)","pKd (GRIP1_3, Q9Y3R0)","pKd (NHERF4_2, Q86UT5)","pKd (GRIP1_4, Q9Y3R0)","pKd (GIPC2, Q8TF65)","pKd (FRMPD4, Q14CM0)","pKd (DFNB31_2, Q9P202)","pKd (GORASP1, Q9BQQ3)",Binder,other results
below the threshold,below the threshold,below the threshold,below the threshold,4.87,below the threshold,below the threshold,below the threshold,below the threshold,below the threshold,below the threshold,below the threshold,below the threshold,below the threshold,below the threshold,below the threshold,below the threshold,below the threshold,below the threshold,4.48,"VYPNAKVELV [PDLIM4_iso2, P50479;P50479-1]","pKd (PDZRN3_1, Q9UPQ7): below the threshold; pKd (LIN7B, Q9HAP6): below the threshold"
below the threshold,below the threshold,below the threshold,below the threshold,below the threshold,–,below the threshold,4.18,4.24,below the threshold,below the threshold,below the threshold,below the threshold,below the threshold,below the threshold,below the threshold,below the threshold,below the threshold,below the threshold,below the threshold,"YLEPVLSSEL [ATP2A2, P16615;P16615-3]","pKd (HTRA3, P83110): below the threshold; pKd (MAGI2_4, Q86UL8): below the threshold; pKd (ARHGAP21, Q5T5U3): below the threshold"
below the threshold,below the threshold,below the threshold,–,4.6,below the threshold,below the threshold,below the threshold,below the threshold,–,–,below the threshold,below the threshold,below the threshold,below the threshold,below the threshold,below the threshold,below the threshold,below the threshold,4.34,"KSGKQTMLVV [TRIM29, Q14134;Q14134-2]","pKd (HTRA3, P83110): below the threshold; pKd (ARHGAP21, Q5T5U3): 4.14; pKd (PDZRN3_1, Q9UPQ7): below the threshold; pKd (LIN7B, Q9HAP6): below the threshold"
